This assay concerns the target 新型冠状病毒SARS-CoV-2和SARS-CoV以及动物来源的SARS-like冠状病毒S1. The assay is described as follows: ELISA, S1 coated at 2 μg/mL, antibody titrated.

B1: 广谱抗sarbecovirus和/或新冠突变株的抗体 SCM12-61 (antibody, V domains shown)
VH: QVQLVESGGGVVQPGRSLRLSCATSGFTFRSSAMHWVRQAPGKGLEWVAVIWFDGIKKYYTDSVKGRFTISRDNSKNTLYLQMNSLGAEDTAVYYCARDRAREFYPGPHCGDECYSSDAFDVWGQGTTVIVSS
VL: DIQMTQSPSSLSASVGDRVTITCRASQDINTYLNWYQQKSGRAPKFLIYAASSLQSGIPSRFSGSGSGTDFTLTIDSLQPEDFATYYCQQSHSIPYTFGQGTKLEIKR
The molecule B1 yielded an EC50 of 0.0239 to 0.0405 µg/mL.

Usually EC50 stands for the concentration needed to bring the measured effect to its halfway point. Read a high EC50 as lower potency in that assay.

The record behind these values is CN118459575A.
